# Measurements taken from the supplement of paper PMC9170038.
# Test system: MS2 coat protein
# Assay: apparent KD of MS2 coat protein; higher = weaker reporter binding
# Conditions: Eterna round: R107
# Protocol: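 RNA-MaP round R107: designed RNA switches with theophylline, tryptophan, arginine or FMN aptamers are transcribed on-chip within common flanks. They are titrated with SNAP-549-labelled MS2 coat protein in RNA-MaP buffer (100 mM Tris pH 7.5, 80 mM KCl, 4 mM MgCl2), without ligand or with the indicated ligand. Median apparent KD per design.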
# [1] = input ligand: theophylline 20 uM
# [2] = input ligand: theophylline 2 mM
# [3] = input ligand: tryptophan 2.4 mM
Sequence,apparent KD of MS2 coat protein (input ligand: arginine 13.2 mM) [nM],apparent KD of MS2 coat protein (input ligand: none) [nM],apparent KD of MS2 coat protein [1] [nM],apparent KD of MS2 coat protein [2] [nM],apparent KD of MS2 coat protein [3] [nM]
ACAUGAGGAUCACCCAUGUAAAUAACGGAAGGAGCGUGCAAAAGCACAGGUAGGUCGCCGAUAUAAAUAUUGGGUAUUAUAUUAU [AstrosExyArgA#2],23.9,33.6,39.3,29,28.5
ACAUGAGGAUCACCCAUGUAAGUUUCAGAAGGAGCGUGAAUUAUCACAGGUAGGUCGCUGAAGUUUGCAUAUACUUAUAAAUGUA [JR_ExcArginiA_Sub006],21,22.5,26.6,26.5,19.8
ACAUGAGGAUCACCCAUGUAAUGGCACGAUACCAGCUGAUCCCGUGGCCCUUGGCAGCGUCCGGUGUGGUCCGCCGGGUUGGACG [XXXMULLIN],24.4,–,38.7,–,24.1
ACAUGAGGAUCACCCAUGUACAUGAGGGAAGGAGCGGUACAUGUGCCAGGUAGGUCGCCCAAGAGCAUCAGCCAUGUACAUCAGC [qasmullin],43.5,131,131,90,80.5
ACAUGAGGAUCACCCAUGUAUGAUGUUCCUCGAGGACCGGUACGGCCGCCACUCGAACGAGUGGCACGCGAGUGCGCACUCGCGU [aXa],22.1,14.2,19.6,14.9,11.7
ACAUGAGGAUCACCCAUGUAUUACCGGGAAGGAGCGCGUAAGGACGCAGGUAGGUCGCUCGGCGUCGUGCUGGAAAGCACGACGA [#1 Same State - Arginine A Attempt #23 (HarryS)],12.9,14.1,20.7,17.9,15.1
ACAUGAGGAUCACCCAUGUCACGGCACGAUACCAGCUGAUCCGGUGGCCCUUGGCAGCGUCACGUUUGGUCCCGCGGAUGACACG [klmmullin],29.4,–,89.6,–,65.5
ACAUGAGGAUCACCCAUGUCACGGCACGAUACCAGCUGAUCCGGUGGCCCUUGGCAGCGUGACGUUUGGUCCCGCGGAUGACACG [ppmullin],96.5,–,142,–,137
ACAUGAGGAUCACCCAUGUCUGCCACUGAUACCAGCGGAAGAAAACGCCCUUGGCAGCAGAACAUGAGGAUCACCCAUGUAGGCU [Same State Theophylline A GF29],39.6,–,166,–,140
ACAUGAGGAUCACCCAUGUGCAUCACCCGACGAGGACCGGUACGGCCGCCACUCGGGUAUAUAUUUACAUCGGGUGAUUUUACGU [#24 Tryptophan A Same State],29.1,–,55.9,51.8,–
ACAUGAGGAUCACCCAUGUGCAUGAUGAUCCGAGGACCGGUACGGCCGCCACUCGUCAUGAUGAUCUUUCAUGUUUGUCGCGCGC [Flamini II],62.6,–,326,422,–
ACAUGAGGAUCACCCAUGUGGCGACUUGAUACCAGACCCGCACUAGUCCCUUGGCAGCAACUACGUGAGGGUCACCCAUGUGAAG [vndullin],35.5,20,29.3,28.9,18.3
ACAUGAGGAUCACCCAUGUGGCGACUUGAUACCAGACCCGCACUAGUCCCUUGGCAGCAACUACGUGUGGGACACCCAUGUUAAG [lplmullin],17.3,–,22.7,–,16
ACAUGAGGAUCACCCAUGUUAAGCACAGAAGGAGCGUGAAGAAACACAGGUAGGUCGCUGUACUUAUCGAGCGUUAGCUCGAUAC [JR_Nu_SSArginiA_Sub029],13.7,23.1,29,26.4,20.9
ACAUGAGGAUCACCCAUGUUCCUCAUUGAUACCAGUGAAAGAAGACGCCCUUGGCAGCGAGAAGAAGAAGAAGAAGAAGAAGAGG [6.A],48.4,725,425,671,588
